Residue numbers refer to the chain shown, from its start.
Columns and labels:
biotin-Aβ1-20 [1] = target: T1, biotin-Aβ1-20 (biotin (position not given)); assay: BIACORE, biotin-Aβ1-20 as antigen; column IgG1#1
T1 peptide: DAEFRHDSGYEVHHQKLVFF

biotin-Aβ1-20 [2] = target: T1, biotin-Aβ1-20; assay: BIACORE, biotin-Aβ1-20 as antigen; column IgG1#2
[3] = target: T2, Biotinylated ADDL preparations (bADDLs) (N-terminal biotin); assay: BIACORE, bADDL as antigen; column IgG1#2
T2 construct: Oligomer, number of copies not fixed; also called biotinylated ADDL antigen; high molecular weight 10% bADDL

[4] = target: T2, Biotinylated ADDL preparations (bADDLs); assay: BIACORE, bADDL as antigen; column IgG1#1
[5] = target: T3, Aβ-derived diffusible ligands (synthetic ADDLs), soluble oligomers of amyloid β1-42; assay: immunofluorescence of ADDLs bound to primary hippocampal neurons
T3 construct: Oligomeric preparation of synthetic Aβ1-42 in DMSO/F12 (monomer, trimer, tetramer, 12-24mer on SDS-PAGE); number of copies not fixed; also called soluble Aβ oligomers

biotin-Aβ1-20 [6] = target: T1, biotin-Aβ1-20; assay: BIACORE, biotin-Aβ1-20 as antigen; column Fab
[7] = target: T2, Biotinylated ADDL preparations (bADDLs); assay: BIACORE, bADDL as antigen; column Fab (row shifted one column to the left)
Aβ1-20 peptide [8] = target: T4, Aβ1-20 peptide; assay: peptide ELISA
T4 peptide: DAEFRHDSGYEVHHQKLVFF

[9] = target: T5, ADDL fibril preparation (Aβ1-42 fibrils); assay: solution equilibrium titration, free IgG by ELISA, GraFit; SE 0.59
T5 construct: Fibrillar assembly; number of copies not fixed

[10] = target: T6, amyloid beta (1-40) peptide; assay: solution equilibrium titration, free IgG by ELISA, GraFit; SE 21.86
T6 construct: Used as monomer-like control; also called Aβ1-40; monomer preparation

[11] = target: T3, Aβ-derived diffusible ligands …; assay: solution equilibrium titration, free IgG by ELISA, GraFit; SE 0.74
[12] = target: T5, ADDL fibril preparation (Aβ1-42 fibrils); assay: solution equilibrium titration, free IgG by ELISA, GraFit; SE 0.99
[13] = target: T6, amyloid beta (1-40) peptide; assay: solution equilibrium titration, free IgG by ELISA, GraFit; SE 2.64
[14] = target: T3, Aβ-derived diffusible ligands …; assay: solution equilibrium titration, free IgG by ELISA, GraFit; SE 0.25
[15] = target: T7, SEC Peak 1 fraction of ADDLs (large aggregates, >50 kDa); assay: sandwich ELISA on SEC peaks (FIG. 3)
T7 construct: Monomer, trimer, tetramer and 12-24mer on SDS-PAGE

[16] = target: T8, SEC Peak 2 fraction of ADDLs (small aggregates, <30 kDa); assay: sandwich ELISA on SEC peaks (FIG. 3)
T8 construct: Mostly monomer with small amounts of trimer and tetramer, no 12-24mer

[17] = target: T5, ADDL fibril preparation (Aβ1-42 fibrils); assay: solution equilibrium titration, free IgG by ELISA, GraFit; SE 2.40
[18] = target: T3, Aβ-derived diffusible ligands …; assay: solution equilibrium titration, free IgG by ELISA, GraFit; SE 0.52
Aβ1-20 peptide [19] = target: T4, Aβ1-20 peptide; assay: solution equilibrium titration, free IgG by ELISA, GraFit; SE 7.07
[20] = target: T6, amyloid beta (1-40) peptide; assay: solution equilibrium titration, free IgG by ELISA, GraFit; SE 5.84
[21] = target: T5, ADDL fibril preparation (Aβ1-42 fibrils); assay: solution equilibrium titration, free IgG by ELISA, GraFit; SE 3.69
[22] = target: T3, Aβ-derived diffusible ligands …; assay: solution equilibrium titration, free IgG by ELISA, GraFit; SE 1.03
[23] = target: T6, amyloid beta (1-40) peptide; assay: solution equilibrium titration, free IgG by ELISA, GraFit; SE 4.14
[24] = target: T6, amyloid beta (1-40) peptide; assay: solution equilibrium titration, free IgG by ELISA, GraFit; SE 2.07
[25] = target: T3, Aβ-derived diffusible ligands …; assay: solution equilibrium titration, free IgG by ELISA, GraFit; SE 0.42
[26] = target: T5, ADDL fibril preparation (Aβ1-42 fibrils); assay: solution equilibrium titration, free IgG by ELISA, GraFit; SE 1.60
[27] = target: T3, Aβ-derived diffusible ligands …; assay: solution equilibrium titration, free IgG by ELISA, GraFit; SE 1.63
[28] = target: T6, amyloid beta (1-40) peptide; assay: solution equilibrium titration, free IgG by ELISA, GraFit; SE 6.21
Aβ1-20 peptide [29] = target: T4, Aβ1-20 peptide; assay: solution equilibrium titration, free IgG by ELISA, GraFit; SE 4.39
[30] = target: T5, ADDL fibril preparation (Aβ1-42 fibrils); assay: solution equilibrium titration, free IgG by ELISA, GraFit; SE 5.78

B1: 20C2-2A, affinity matured humanized 20C2, IgG1 humanized A version (antibody, V domains shown)
VH: QVTLKESGPALVKPTQTLTLTCTFSGFSLSTSGMGVGWIRQPPGKALEWLAHIWWDDDKSYNPSLKSRLTISKDTSKNQVVLTMTNMDPVDTATYYCARRQLGLRSIDAMDYWGQGTTVTVSS
VL: DVVMTQSPLSLPVTPGEPASISCRSSQSILHSNGNTYLEWYLQKPGQSPQLLIYKVSNRFSGVPDRFSGSGSGTDFTLKISRVEAEDVGVYYCFQATRVPLTFGQGTKLEIKR
notes: also called SJ-p1-18
biotin-Aβ1-20 [1]
  Kd: 0.686 nM
biotin-Aβ1-20 [2]
  Kd: 2 nM
[3]
  Kd: 0.0003 nM
[4]
  Kd: 0.015 nM

B2: 20C2-5A, affinity matured humanized 20C2, IgG1 humanized A version (antibody, V domains shown)
VH: B1 VH
VL: B1 VL with A96S, T97S, R98F
notes: also called SJ-p2-1F
biotin-Aβ1-20 [1]
  Kd: 0.912 nM
biotin-Aβ1-20 [2]
  Kd: 1.5 nM
[3]
  Kd: 0.068 nM
[4]
  Kd: 0.317 nM

B3: 20C2-6A, affinity matured humanized 20C2, IgG1 humanized A version (antibody, V domains shown)
VH: B1 VH
VL: B1 VL with A96S, T97S
notes: also called 4P1-22
biotin-Aβ1-20 [1]
  Kd: 0.544 nM
biotin-Aβ1-20 [2]
  Kd: 0.714 nM
[3]
  Kd: 0.024 nM
[4]
  Kd: 0.0043 nM

B4: 20C2-8A, affinity matured humanized 20C2, IgG1 humanized A version (antibody, V domains shown)
VH: B1 VH
VL: B1 VL with F94L, A96T
notes: also called SJ-p2-39
biotin-Aβ1-20 [1]
  Kd: 0.14 nM
biotin-Aβ1-20 [2]
  Kd: 0.376 nM
[3]
  Kd: 0.0007 nM
[4]
  Kd: 0.003 nM

B5: 20C2-8B, affinity matured humanized 20C2, IgG1 humanized B version (antibody, V domains shown)
VH: B1 VH with F24L
VL: B1 VL with F94L, A96T
notes: also called SJ-p2-39
biotin-Aβ1-20 [1]
  Kd: 0.046 nM
biotin-Aβ1-20 [2]
  Kd: 0.064 nM
[3]
  Kd: 0.0008 nM
[4]
  Kd: 0.013 nM

B6: 20C2-9A, affinity matured humanized 20C2, IgG1 humanized A version (antibody, V domains shown)
VH: B1 VH
VL: B1 VL with F94V, A96T, T97S, R98L
notes: also called SJ-p2-51
biotin-Aβ1-20 [1]
  Kd: 0.241 nM
biotin-Aβ1-20 [2]
  Kd: 0.42 nM
[3]
  Kd: 0.002 nM

B7: 20C2-23A, affinity matured humanized 20C2, IgG1 humanized A version (antibody, V domains shown)
VH: B1 VH
VL: B1 VL with F94H, A96S, T97S, R98K
notes: also called 4P1-40
biotin-Aβ1-20 [1]
  Kd: 0.649 nM
biotin-Aβ1-20 [2]
  Kd: 1.5 nM
[3]
  Kd: 0.066 nM
[4]
  Kd: 0.085 nM

B8: murine anti-ADDL monoclonal antibody 2H4 (antibody, mouse IgG2a, V domains shown)
VH: DVQLVESGGGLVQPGGSRKLSCAASGFTFSSFGMHWVRQAPEKGLEWVAYIRSGSSTIYYADTVKGRFTISRDNPKNTLFLQMTSLRSEDTAMYYCTRGGNYYGSSRFAYWGQGTLVTVSA
VL: DIKMTQSPSSMYASLGERVTITCKASQDINSYLSWFQQKPGKSPKTLIYRANRFVDGVPSRFSGSGSGQDYSLTISSLEYEDMGIYFCLQYDEFPLTFGAGTKLVLK
[5]
  binding result: binds

B9: Fab of mouse 20C2 (Fab, V domains shown)
VH: QVTLKESGPGILKPSQTLSLTCSLSGFSLSTSGMGVGWFRQPSGKGLEWLAHIWWDDDKSYNPSLKSRLTISKYTSRNQVFLTITSVDTADTATYYCARRQLGLRSIDAMDYWGQGTSVTVSS
VL: DVLMTQTPLSLPVSLGDQASISCRSSQSILHSNGNTYLEWYLQKPGQSPKLLIYKVSNRFSGVPDRFSGSGSGTDFTLKISRVEAEDLGVYYCFQGSLVPLTFGAGTKLELK
notes: also called Mouse-20C2 (Fab column)
biotin-Aβ1-20 [6]
  Kd: 83 nM
[7]
  Kd: 62 nM

B10: murine anti-ADDL monoclonal antibody 1F6 (antibody, mouse IgG1, V domains shown)
VH: DVQLVESGGGLVQPGGSRKLSCAASGFTFSSFGMHWVRQAPEKGLEWVAYISSVSSTIYYADTVKGRFTISRDNPKNTLFLQMTSLRSEDTAMYYCARSGYGSSYGYGMDYWGQGTLVTVSS
VL: B9 VL with L30V, L98H
Aβ1-20 peptide [8]
  binding result: binds

B11: murine anti-ADDL monoclonal antibody 3B3 (antibody, mouse IgG1, V domains shown)
VH: DVQLVESGGGLVQPGGSRKLSCAASGFTFSSFGMHWVRQAPEKGLEWVAYISRGSSTIYYADTVKGRFTISRDNPKNTLFLQMTSLRSEDTAMYYCARGITTALDYWGQGTSVTVSS
VL: B9 VL with L30V, V56A, L98H, L101P, A105G, L111I
Aβ1-20 peptide [8]
  binding result: binds
[9]
  Kd: 7.21 nM
[10]
  Kd: 105 nM
[11]
  Kd: 10 nM

B12: murine anti-ADDL monoclonal antibody 2A10 (antibody, mouse IgG1, V domains shown)
VH: QVTLKESGPGILKPSQTLSLTCSFSGFSLSTSGMGVGWIRQPSGKGLEWLAHIWWDDDKYYNPSLKSQLTISKDTSRNQVFLKITSVDTADTATYYCARRSISTLVPEDYFDYWGQGTTLTVSS
VL: B9 VL with L30V, L98H
[12]
  Kd: 6.72 nM
[13]
  Kd: 14.7 nM
[14]
  Kd: 2.29 nM
[15]
  binding result: binds
[16]
  binding result: binds

B13: murine anti-ADDL monoclonal antibody 2D6 (antibody, mouse IgG1, V domains shown)
VH: B12 VH with L105V, V106I, T119I
VL: B9 VL with P12T, L30V, L98H
[17]
  Kd: 14.4 nM
[18]
  Kd: 5.05 nM
Aβ1-20 peptide [19]
  Kd: 30.2 nM
[20]
  Kd: 25.7 nM

B14: murine anti-ADDL monoclonal antibody 4C2 (antibody, mouse IgG1, V domains shown)
VH: B12 VH with S103T, L105V, D112A
VL: B9 VL with T7S, L30V, L98H
[21]
  Kd: 19.2 nM
[22]
  Kd: 8.08 nM
[23]
  Kd: 21.9 nM
[15]
  binding result: binds
[16]
  binding result: binds

B15: murine anti-ADDL monoclonal antibody 4E2 (antibody, mouse IgG1, V domains shown)
VH: B12 VH with S103N, T104S, L105V, S124L
VL: B9 VL with L30V, L98H
[24]
  Kd: 20.2 nM
[25]
  Kd: 4.26 nM
[15]
  binding result: binds
[16]
  binding result: binds
[26]
  Kd: 9.4 nM

B16: murine anti-ADDL monoclonal antibody 5F10 (antibody, V domains shown)
VH: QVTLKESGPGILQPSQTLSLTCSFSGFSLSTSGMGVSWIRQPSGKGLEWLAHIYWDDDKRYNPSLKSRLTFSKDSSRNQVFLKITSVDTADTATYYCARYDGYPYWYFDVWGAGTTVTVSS
VL: B9 VL with D1V, I29L, L30V, E39H, Y92F, G96S, S97T, L98H
notes: also called SF10
[27]
  Kd: 11.9 nM
[28]
  Kd: 23.5 nM
Aβ1-20 peptide [29]
  Kd: 6.1 nM
[30]
  Kd: 28.9 nM

From patent US20060228349A1 (published 2006)
